Drawing on patent publication EP0758381B1, this text covers potency in the proliferation assay, clustered against unclustered ligand and potency in the phosphorylation assay, clustered against unclustered ligand for three substances.

Assay [1] deals with Eck receptor chimera (ectodomain of the Eck receptor fused to the cytoplasmic domain of the FGF receptor) on BAF cells. The experiment in a line: cell-based or functional assay.
The target in assay [2] is Elk receptor on transfected 3T3 fibroblasts. Briefly: cell-based or functional assay.

In turn, “soluble Efl-2 (EHK-1L) produced in COS cells (ligand)” returned a potency in the proliferation assay, clustered against unclustered ligand in assay [1] of 100 fold.
Take soluble myc-tagged Efl-1 (B61) (ligand): the potency in the proliferation assay, clustered against unclustered ligand in assay [1] was found to be 100 fold.
“soluble myc-tagged Efl-3 (ELK-L) (ligand)” gave a potency in the phosphorylation assay, clustered against unclustered ligand in assay [2] of 100 fold.
